According to patent US20250163162A1:

Biological target: T1, IL10Rα/IL2Rγ receptor (human) (UniProt Q13651)
T1 sequence (looked up) 1: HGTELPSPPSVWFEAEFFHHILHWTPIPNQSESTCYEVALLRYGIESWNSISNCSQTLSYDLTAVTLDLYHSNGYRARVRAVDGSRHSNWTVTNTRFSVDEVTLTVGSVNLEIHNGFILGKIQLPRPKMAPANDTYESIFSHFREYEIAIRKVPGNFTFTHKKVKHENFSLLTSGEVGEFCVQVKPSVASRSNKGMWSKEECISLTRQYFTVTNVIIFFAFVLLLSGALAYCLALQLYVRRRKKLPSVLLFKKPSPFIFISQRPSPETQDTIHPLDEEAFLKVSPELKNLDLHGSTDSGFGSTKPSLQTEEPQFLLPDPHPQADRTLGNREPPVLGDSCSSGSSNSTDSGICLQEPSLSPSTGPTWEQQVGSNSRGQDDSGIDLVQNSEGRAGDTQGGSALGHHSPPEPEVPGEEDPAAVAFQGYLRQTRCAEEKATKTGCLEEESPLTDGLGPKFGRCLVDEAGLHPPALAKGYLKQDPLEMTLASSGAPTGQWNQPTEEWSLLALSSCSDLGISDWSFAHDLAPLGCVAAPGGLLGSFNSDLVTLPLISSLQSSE
T1 sequence (looked up) 2: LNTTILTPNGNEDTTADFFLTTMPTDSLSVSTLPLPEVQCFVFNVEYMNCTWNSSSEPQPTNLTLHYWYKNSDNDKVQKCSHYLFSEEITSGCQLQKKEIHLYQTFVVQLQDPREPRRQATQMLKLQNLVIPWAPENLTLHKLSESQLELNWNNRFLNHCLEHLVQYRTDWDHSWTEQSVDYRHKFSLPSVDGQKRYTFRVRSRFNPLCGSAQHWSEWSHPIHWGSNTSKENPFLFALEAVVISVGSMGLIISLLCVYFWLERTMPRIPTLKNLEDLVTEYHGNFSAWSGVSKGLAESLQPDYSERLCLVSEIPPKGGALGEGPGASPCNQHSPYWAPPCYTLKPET
Test: cell-based or functional assay

B1: hIL10Ra_VHH14 - hIL2Rg_VHH19, linker GGSGGS, tag his (bispecific antibody, not shown: small tags and cut ends)
chain: QVQLQESGGGSVQAGGSLRLSCGASGYTYSSYCMGWFRQVPGKEREGVAVIDSDGSTSYADSVKGRFTISKDNGKNTLYLQMNSLKPEDTAMYYCAADLGHYRPPCGVLYLGMDYWGKGTQVTVSSGGSGGSQVQLQESGGGSVQAGGSLRLSCTASGFTFDDREMNWYRQAPGNECELVSTISSDGSTYYADSVKGRFTISQDNAKNTVYLQMDSVKPEDTAVYYCAADFMIAIQAPGAGCWGQGTQVTVSS
- Granzyme A secretion, CD8 T cells, at 0 µM: 25200 pg/mL
- Granzyme A secretion, CD8 T cells, at 0.0001 µM: 20800 pg/mL
- Granzyme A secretion, CD8 T cells, at 0.001 µM: 23000 pg/mL
- Granzyme A secretion, CD8 T cells, at 0.01 µM: 25300 pg/mL
- Granzyme A secretion, CD8 T cells, at 0.1 µM: 27100 pg/mL
- Granzyme A secretion, CD8 T cells, at 1 µM: 28700 pg/mL
- Granzyme A secretion, CD8 T cells, at 10 µM: 29400 pg/mL
- Granzyme A secretion, CD8 T cells, at 100 µM: 25600 pg/mL
- Granzyme B secretion, CD8 T cells, at 0 µM: 77700 pg/mL
- Granzyme B secretion, CD8 T cells, at 0.0001 µM: 54500 pg/mL
- Granzyme B secretion, CD8 T cells, at 0.001 µM: 50900 pg/mL
- Granzyme B secretion, CD8 T cells, at 0.01 µM: 54100 pg/mL
- Granzyme B secretion, CD8 T cells, at 0.1 µM: 62300 pg/mL
- Granzyme B secretion, CD8 T cells, at 1 µM: 77600 pg/mL
- Granzyme B secretion, CD8 T cells, at 10 µM: 90000 pg/mL
- Granzyme B secretion, CD8 T cells, at 100 µM: 77900 pg/mL
- IFNγ secretion, CD8 T cells, at 0 µM: 122000 pg/mL
- IFNγ secretion, CD8 T cells, at 0.0001 µM: 94700 pg/mL
- IFNγ secretion, CD8 T cells, at 0.001 µM: 110000 pg/mL
- IFNγ secretion, CD8 T cells, at 0.01 µM: 117000 pg/mL
- IFNγ secretion, CD8 T cells, at 0.1 µM: 122000 pg/mL
- IFNγ secretion, CD8 T cells, at 1 µM: 144000 pg/mL
- IFNγ secretion, CD8 T cells, at 10 µM: 149000 pg/mL
- IFNγ secretion, CD8 T cells, at 100 µM: 127000 pg/mL
- IL-1β secretion, LPS treated monocytes, at 0 µM: 6240 pg/mL
- IL-1β secretion, LPS treated monocytes, at 0 µM (LPS only): 6880 pg/mL
- IL-1β secretion, LPS treated monocytes, at 0.0001 µM: 6290 pg/mL
- IL-1β secretion, LPS treated monocytes, at 0.001 µM: 5850 pg/mL
- IL-1β secretion, LPS treated monocytes, at 0.01 µM: 6100 pg/mL
- IL-1β secretion, LPS treated monocytes, at 0.1 µM: 4960 pg/mL
- IL-1β secretion, LPS treated monocytes, at 1 µM: 5780 pg/mL
- IL-1β secretion, LPS treated monocytes, at 10 µM: 6420 pg/mL
- IL-1β secretion, LPS treated monocytes, at 100 µM: 7840 pg/mL
- IL-9 secretion, CD8 T cells, at 0 µM: 1350 pg/mL
- IL-9 secretion, CD8 T cells, at 0.0001 µM: 951 pg/mL
- IL-9 secretion, CD8 T cells, at 0.001 µM: 1010 pg/mL
- IL-9 secretion, CD8 T cells, at 0.01 µM: 1140 pg/mL
- IL-9 secretion, CD8 T cells, at 0.1 µM: 1090 pg/mL
- IL-9 secretion, CD8 T cells, at 1 µM: 1440 pg/mL
- IL-9 secretion, CD8 T cells, at 10 µM: 1600 pg/mL
- IL-9 secretion, CD8 T cells, at 100 µM: 1700 pg/mL
